Measured values as given in the supplement of paper PMC10567573.

B1: FAM164C (parent)
chain: YPHCTGISQQDPESDSQGQGNGLF
B2: ZNF263 (parent)
chain: QPKKLHLCPLCGKNFSNNSNLIRH

Variants of: B1
Experiment: protein stability index of a GFP-peptide fusion (GPS, HEK-293T) (PSI 1-6); higher = more stable
Conditions: c terminus: a fixed tail appended
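Note: lentivirally expressed fusions sorted by FACS into six bins by GFP to DsRed ratio, PSI derived from sequencing read proportions per bin multiplied by bin number.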

Protein stability index, by site and new letter:
P2: C 2.45; E 5.31; K 4.51; M 4.07; H 2.9; I 2.83; N 4.54; L 3.96; G 4.47; F 3.86; A 3.57; D 5.09
Y1: S 5.39; F 3.49; C 4.29; Q 5.36; V 5.07; R 4.63; G 5.44; W 4.43; H 4.85; T 5.38; D 5.46; P 5.37; L 5.44; N 5.28; A 5.44; E 5.25; I 5.14; M 5.4; K 5.28

Variants of: B2
Experiment: as above
Conditions: c terminus: a fixed tail appended

Protein stability index of substitutions, site by site:
L21: E 2.92; Y 2.12; T 2.56; G 2.62; P 1.93; A 2.56; H 2.83; I 2.47; C 3.13; Q 2.38; R 2.64; N 2.44; S 2.19
L10: W 2.38; C 4.03; D 3.78; S 4.12; H 3.56; N 3.16; M 3.28; R 3.32; Q 2.91; K 3.44; A 2.5
H6: N 2.14; E 2.38; A 2.02; P 2.11; S 1.71; Q 2.22; Y 2.88; M 2.24; G 2.39; W 2.05; K 2.81
N18: R 3.36; L 3.11; M 2.5; Y 3.22; D 2.8; Q 3.17; A 2.97; E 3.66; S 2.39
R23: G 2.65; Q 2.77; Y 1.91; V 2.33; E 3.06; S 2.78; T 2.92; I 1.91; D 3.77; A 3.08; C 3; M 2.52; P 2.93; L 2; W 1.76; H 2.56
K4: C 2.53; V 2.62; P 2.69; Y 2.44; D 3; H 2.49; I 2.85; E 3.36; L 2.97; A 2.19
Q1: L 2.4; S 2.39; R 2.47; H 2.69; V 2.12; W 2.26; A 2.97; F 2.21; E 3.16
K3: D 2.94; T 2.17; R 2.06; S 2.56; I 2.78; P 2.62; A 2.33; L 2.63; N 2.83
N14: P 2.61; G 2.63; L 2.84; Q 3.1; T 2.97; H 3.06; Y 2.57; R 2.35; F 2.69; K 2.94; S 3.48; I 3.33; D 2.08; E 3.52; W 3.51; C 3.93; A 3.29
C8: M 3.22; D 2.4; T 3.03; G 2.85; N 3; I 2.61; V 3.15; K 2.46; F 2.05; R 2.56; E 3.1; H 2.38; A 2.83; L 1.97
L7: Q 2.85; D 2.1; T 2.74; R 2.72; E 2.28; M 2.59; N 2.18; K 2.88; W 2.38; C 2.3
H24: P 2.56; V 2.27; K 2.64; S 2.4; Q 2.43; L 2.24; E 2.43; M 2.31; G 2.43; I 2.08; A 1.74; D 2.11; R 2.07
N17: W 2.15; C 2.33; D 2.48; Y 2.23; Q 2.42; A 2.69; P 2.33; M 2.26; G 2.09; R 2.07; H 2.43; L 2.58
K13: N 2.77; Q 2.11; H 2.62; T 2.15; M 2.69; V 2; E 2.29; A 3.12; C 2.47; S 2.41; W 1.8; D 1.67; L 2.21
P9: A 2.43; I 1.89; N 2.4; K 2.63; M 2.31; Q 2.67; Y 2.61; D 2.56; W 2.4; E 2.56; T 2.66; V 2.1; H 2.38; C 2.3
G12: H 2.4; E 2; I 2.44; N 2.45; R 2.34; Y 2.68; P 2.3; M 1.79; Q 2.53; A 2.27; K 2.13; W 1.94; C 2.47; F 1.39; T 3.13; S 1.99
L5: A 2.53; N 2.13; E 2.64; C 2.02; D 3.25; Q 2.54; V 3.02; H 2.64; Y 2.18; P 2.09
C11: R 2.83; E 3.18; Y 1.68; M 2.07; T 3.11; I 2.16; A 3.13; P 3.36; F 1.87; Q 2.91; L 2.41; K 2.62; G 2.56; S 2.74
F15: I 2.36; V 1.82; E 2.07; R 2.61; W 1.95; A 2.03; T 1.95; M 1.99; L 2; N 2.45; Q 1.89; C 2.53; H 3.33
P2: L 1.81; D 2.42; S 2.53; M 2.27; N 2.31; H 1.68; T 2.57; V 2.3; Q 2.47; I 2.43; F 2.44; C 2.13
N20: W 1.57; A 3.25; H 2.69; Y 2.56; T 2.94; L 3.05; V 2.04; Q 4.04; K 3; C 3.21; G 2.46
S19: H 2.55; G 1.96; Q 2.69; K 3.37; I 2.58; M 2.7; D 3.24; P 1.77; Y 2.6; T 2.75; A 2.65; L 2.96; W 2.67; E 3.14; V 2.43; R 2.5; F 2.54; N 2.89
I22: M 2.88; P 2.19; H 2.76; S 2.55; T 2.35; Q 3.09; W 1.79; K 2.33; L 2.93; R 2.76; Y 2.69; V 2.73; F 2.47
S16: W 2.09; T 2.21; A 2.4; E 2.62; K 2.56; D 2.72; R 2.17; Q 2.44; C 2.57; F 2.48; Y 2.6; H 2.42; I 2.36; P 2.49; N 2.38
